The supplement of paper PMC7877785
± gives the uncertainty stated by the source.

Assay: self-splicing fitness, log relative to wild type (ln ratio); higher = more splicing; Tetrahymena group I intron in knt gene, E. coli kanamycin selection, DiMSum; sequences stand for … in CUCUCU…GGAGGGAAAAGUUAUCAGGCAUGCACCUGGUAGCUAGUCUUUAAACCAAUAGAUUGCAUCGGUUUAAAAGGCAAGACCGUCAAAUUGCGGGAAAGGGGUCAACAGCCGUUCAGUACCAAGUCUCAGGGGAAACUUUGAGAUGGCCUUGCAAAGGGUAUGGUAAUAAGCUGACGGACAUGGUCCUAACCACGCAGCCAAGUCCUAAGUCAACAGAUCUUCUGUUGAUAUGGAUGCAGUUCACAGACUAAAUGUCGGUCGGGGAAGAUGUAUUCUUCUCAUAAGAUAUAGUCGGACCUCUCCUUAAUGGGAGCUAGCGGAUGAAGUGAUGCAACACUGGAGCCGCUGGGAACUAAUUUGUAUGCGAAAGUAUAUUGAUUAGUUUUGGAGUACUCGUGGUCG
In short: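 Six replicate transformations of E. coli BL21(DE3) with a pET-22b(+) library were grown overnight at 37°C or 30°C. The library randomised all eight P1ex-region intron nucleotides, the intron lying in the knt kanamycin-resistance gene, and plates were LB agar with or without 25 μg/mL kanamycin plus 100 μg/mL carbenicillin, 50 μM IPTG and 0.2% rhamnose. Pooled colonies were amplicon-sequenced on an Illumina HiSeq 2500, and fitness is the DiMSum error-weighted combination of wild-type-normalised replicate fold changes, kanamycin versus none.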

UAAAAGCAAUAUUACGUAAG
self-splicing fitness (ln) (30 °C): -1.01 ± 0.079 | self-splicing fitness (ln) (37 °C): -0.764 ± 0.11

UCCCAGCAAUAUUACGCUUA
self-splicing fitness (ln) (30 °C): -2.26 ± 0.14 | self-splicing fitness (ln) (37 °C): -0.458 ± 0.11

CUUUAGCAAUAUUACGGCGG
self-splicing fitness (ln) (30 °C): -0.763 ± 0.093 | self-splicing fitness (ln) (37 °C): -0.528 ± 0.12

UGGAAGCAAUAUUACGCAUU
self-splicing fitness (ln) (30 °C): -2.63 ± 0.27

GUGAAGCAAUAUUACGGAUA
self-splicing fitness (ln) (30 °C): -1.37 ± 0.096 | self-splicing fitness (ln) (37 °C): -1.13 ± 0.1

GCCGAGCAAUAUUACGGCUU
self-splicing fitness (ln) (37 °C): -2.08 ± 0.41

CCGAAGCAAUAUUACGUACG
self-splicing fitness (ln) (30 °C): -1.37 ± 0.13 | self-splicing fitness (ln) (37 °C): -0.92 ± 0.13

ACGUAGCAAUAUUACGUACG
self-splicing fitness (ln) (30 °C): -2.3 ± 0.19 | self-splicing fitness (ln) (37 °C): -1.35 ± 0.23

AUUCAGCAAUAUUACGCAAG
self-splicing fitness (ln) (30 °C): -1.26 ± 0.098 | self-splicing fitness (ln) (37 °C): -0.884 ± 0.13

AGAAAGCAAUAUUACGGGUU
self-splicing fitness (ln) (30 °C): -2.85 ± 0.15 | self-splicing fitness (ln) (37 °C): -1.61 ± 0.12

UCCUAGCAAUAUUACGGUAC
self-splicing fitness (ln) (30 °C): -3.79 ± 0.26 | self-splicing fitness (ln) (37 °C): -3.32 ± 0.47

UGAAAGCAAUAUUACGAAGC
self-splicing fitness (ln) (37 °C): -2.07 ± 0.28

GCUUAGCAAUAUUACGCCUA
self-splicing fitness (ln) (30 °C): -2.32 ± 0.28 | self-splicing fitness (ln) (37 °C): -1.05 ± 0.22

GCUCAGCAAUAUUACGUAUC
self-splicing fitness (ln) (30 °C): -0.849 ± 0.078 | self-splicing fitness (ln) (37 °C): 0.011 ± 0.077

AGCCAGCAAUAUUACGAAAG
self-splicing fitness (ln) (30 °C): -3.13 ± 0.22 | self-splicing fitness (ln) (37 °C): -3.22 ± 0.38

GUAUAGCAAUAUUACGUGGG
self-splicing fitness (ln) (30 °C): -3.28 ± 0.16 | self-splicing fitness (ln) (37 °C): -1.88 ± 0.14

CGCCAGCAAUAUUACGCAGG
self-splicing fitness (ln) (30 °C): -2.06 ± 0.2 | self-splicing fitness (ln) (37 °C): -2.56 ± 0.26

CGACAGCAAUAUUACGUAUA
self-splicing fitness (ln) (30 °C): -4.3 ± 0.47 | self-splicing fitness (ln) (37 °C): -1.54 ± 0.27

UAGUAGCAAUAUUACGGUUG
self-splicing fitness (ln) (30 °C): -0.955 ± 0.056 | self-splicing fitness (ln) (37 °C): -0.642 ± 0.07

UGUCAGCAAUAUUACGGACA
self-splicing fitness (ln) (30 °C): -3.1 ± 0.29 | self-splicing fitness (ln) (37 °C): -1.75 ± 0.21

CCGGAGCAAUAUUACGAAGA
self-splicing fitness (ln) (30 °C): -3.63 ± 0.23 | self-splicing fitness (ln) (37 °C): -1.97 ± 0.16

GCCAAGCAAUAUUACGCUGC
self-splicing fitness (ln) (30 °C): -3.01 ± 0.27 | self-splicing fitness (ln) (37 °C): -2.04 ± 0.28

GUAAAGCAAUAUUACGGAGC
self-splicing fitness (ln) (30 °C): -2.47 ± 0.2 | self-splicing fitness (ln) (37 °C): -1.71 ± 0.21

UGUCAGCAAUAUUACGAAUU
self-splicing fitness (ln) (30 °C): -0.864 ± 0.13 | self-splicing fitness (ln) (37 °C): -1.04 ± 0.13

AGACAGCAAUAUUACGCCCA
self-splicing fitness (ln) (30 °C): -0.00321 ± 0.2 | self-splicing fitness (ln) (37 °C): 0.432 ± 0.28

AAUCAGCAAUAUUACGUCUA
self-splicing fitness (ln) (30 °C): -0.491 ± 0.069 | self-splicing fitness (ln) (37 °C): -0.133 ± 0.076

CUGGAGCAAUAUUACGAAUC
self-splicing fitness (ln) (30 °C): -3.47 ± 0.43 | self-splicing fitness (ln) (37 °C): -1.68 ± 0.45

GACUAGCAAUAUUACGUCCA
self-splicing fitness (ln) (30 °C): -2.24 ± 0.29 | self-splicing fitness (ln) (37 °C): -1.47 ± 0.26

UUUCAGCAAUAUUACGGGUA
self-splicing fitness (ln) (30 °C): -0.909 ± 0.1 | self-splicing fitness (ln) (37 °C): -0.337 ± 0.12

CGUCAGCAAUAUUACGCGUU
self-splicing fitness (ln) (30 °C): -2.71 ± 0.14 | self-splicing fitness (ln) (37 °C): -2.01 ± 0.18

GGGCAGCAAUAUUACGGUUA
self-splicing fitness (ln) (30 °C): -0.537 ± 0.097 | self-splicing fitness (ln) (37 °C): -0.339 ± 0.089

GCGUAGCAAUAUUACGAGUU
self-splicing fitness (ln) (30 °C): -2.87 ± 0.092 | self-splicing fitness (ln) (37 °C): -0.803 ± 0.097

AUAGAGCAAUAUUACGUUCU
self-splicing fitness (ln) (30 °C): -1.35 ± 0.15 | self-splicing fitness (ln) (37 °C): 0.267 ± 0.17

GCUUAGCAAUAUUACGGAGA
self-splicing fitness (ln) (30 °C): -2.02 ± 0.14 | self-splicing fitness (ln) (37 °C): -0.596 ± 0.12

GUGAAGCAAUAUUACGCAAC
self-splicing fitness (ln) (30 °C): -2.59 ± 0.17 | self-splicing fitness (ln) (37 °C): -2.08 ± 0.22

GAUGAGCAAUAUUACGUCCA
self-splicing fitness (ln) (30 °C): -2.12 ± 0.36 | self-splicing fitness (ln) (37 °C): -2.26 ± 0.32

ACGUAGCAAUAUUACGUGCC
self-splicing fitness (ln) (30 °C): -1.54 ± 0.22 | self-splicing fitness (ln) (37 °C): -0.492 ± 0.24

CGAAAGCAAUAUUACGACAA
self-splicing fitness (ln) (30 °C): -1.13 ± 0.25 | self-splicing fitness (ln) (37 °C): -1.63 ± 0.18

CGAAAGCAAUAUUACGAUAG
self-splicing fitness (ln) (30 °C): -0.598 ± 0.074 | self-splicing fitness (ln) (37 °C): 0.569 ± 0.1

CAUGAGCAAUAUUACGACGA
self-splicing fitness (ln) (30 °C): -2.3 ± 0.3 | self-splicing fitness (ln) (37 °C): -1.85 ± 0.21

AUCUAGCAAUAUUACGUUUA
self-splicing fitness (ln) (30 °C): -2.26 ± 0.13 | self-splicing fitness (ln) (37 °C): -2.3 ± 0.13

AAGUAGCAAUAUUACGCGAA
self-splicing fitness (ln) (30 °C): -2.76 ± 0.23 | self-splicing fitness (ln) (37 °C): -0.182 ± 0.18

ACCGAGCAAUAUUACGCGGG
self-splicing fitness (ln) (30 °C): -3.85 ± 0.18 | self-splicing fitness (ln) (37 °C): -2.89 ± 0.19

GCUUAGCAAUAUUACGAUCU
self-splicing fitness (ln) (30 °C): -1.12 ± 0.12 | self-splicing fitness (ln) (37 °C): 0.155 ± 0.13

UCAAAGCAAUAUUACGGUUC
self-splicing fitness (ln) (30 °C): -4.38 ± 0.22 | self-splicing fitness (ln) (37 °C): -2.5 ± 0.15

AACCAGCAAUAUUACGUUCA
self-splicing fitness (ln) (30 °C): -0.752 ± 0.06 | self-splicing fitness (ln) (37 °C): -0.495 ± 0.065

AGGCAGCAAUAUUACGUCAA
self-splicing fitness (ln) (30 °C): -1.25 ± 0.098 | self-splicing fitness (ln) (37 °C): -0.465 ± 0.095

UGGUAGCAAUAUUACGCAUC
self-splicing fitness (ln) (37 °C): -3.68 ± 0.46

CCCGAGCAAUAUUACGGCCU
self-splicing fitness (ln) (30 °C): -2.93 ± 0.33
